# Reference: patent publication US20210032347A1 (JIANGSU HANSOH PHARMACEUTICAL GROUP, published 2021)
# T1: Human B7-H4 with HisFlag tag (huB7-H4-his) (human, UniProt Q7Z7D3 25-258)
# T1 construct: also called HuB7-H4 His protein; huB7-H4-HF
# T1 sequence: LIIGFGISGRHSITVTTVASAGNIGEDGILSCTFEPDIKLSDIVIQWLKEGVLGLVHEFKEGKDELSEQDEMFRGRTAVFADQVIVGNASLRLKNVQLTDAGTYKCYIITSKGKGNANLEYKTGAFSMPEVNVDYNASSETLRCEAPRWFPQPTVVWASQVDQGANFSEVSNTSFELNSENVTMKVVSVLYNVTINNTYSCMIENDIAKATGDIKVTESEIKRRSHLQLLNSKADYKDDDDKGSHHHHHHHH
# Assays:
# [1] = target: T1, Human B7-H4 with HisFlag tag …; test: indirect ELISA, plate coated with HuB7-H4 His
# Experimental: The plate was washed with PBST (PBS comprising 0.05% Tween-20, pH 7.4) four times, and then 150 μl/well of 3% bovine serum albumin (BSA) blocking solution diluted in PBST was added, and incubated at room temperature for 1 hour for blocking. After the blocking was finished, the blocking solution was discarded and the plate was washed 4 times with PBST buffer.
# The antibodies to be tested were diluted with PBST comprising 3% BSA at a gradient of 10-fold dilution, starting from 1 μM with a total of 10 doses. The dilutions were added into the plate at 100 μl/well, and incubated at room temperature for 1 hour. After the incubation was finished, the plate was washed 4 times with PBST, 100 μl/well of HRP-labeled goat anti-human secondary antibody (Abeam, cat #ab97225) diluted in PBST comprising 3% BSA was added and incubated at room temperature for 1 hour. The plate was washed 4 times with PBST, 100 μl/well TMB chromogenic substrate (Cell Signaling Technology, cat #7004S) was added and incubated at room temperature in darkness for 1 minute, and 100 μl/well of Stop Solution (Cell Signaling Technology, cat #7002S) was added to terminate the reaction. The absorbance was read at 450 nm using a microplate reader (BioTek, model Synergy H1), and the data was analyzed.
# [2] = target: T1, Human B7-H4 with HisFlag tag …; test: SPR Biacore T200, antibody coupled to CM5 chip, 50 nM huB7-H4-his in flow, 1:1 model
# Experimental: (§1) a). 50 nM human huB7-H4-his protein (Sino Biological #10738-H08H) diluted by the same buffer was loaded at a flow rate of 10 μL/min, and the chip was regenerated with the regeneration reagent provided in the kit. Antigen-antibody binding kinetics were recorded for 3 minutes and dissociation kinetics were recorded for 10 minutes. The resulting data were analyzed by GE's BIAevaluation Software using 1:1 (Langmuir) binding model.
# [3] = target: T1, Human B7-H4 with HisFlag tag …; test: SPR Biacore T200, antibody coupled to CM5 chip, series of huB7-H4-his concentrations, 1:1 model
# Experimental: as §1, with “b). A series of concentrations of human” for “a). 50 nM human”, “protein” for “protein (Sino Biological #10738-H08H)”, “buffer were respectively” for “buffer was”, “at the” for “at a”, “10 μL/min” for “10 μL/min,”
Binder,EC50 [1] [nM],koff [2] [s⁻¹],Kd [3] [nM],koff [3] [s⁻¹],kon [3] [M⁻¹ s⁻¹]
"chimeric antibody 2A10 (antibody, human IgG1, V domains shown) VH: EVQLVESGGGFVKPGGSLKLSCAASGFTFSTFGMSWVRQTPDKRLEWVAGISPGGSYTYYPDTVKGRFTISRDNARNTLYLQMSSLRSEDSAMYYCTRGRSVWGTGTTVTVSS VL: DILMTQSPSSMSVSLGDTVSITCHASQDISSNIGWLQQKPGKSFKGLIYHGTTLEDGIPSRFSGSGSGADYSLTISSLESEDFADYYCVQSAQFPWTFGGGTKLEIK",0.071,–,–,–,–
"chimeric antibody 2G6 (antibody, human IgG1, V domains shown) VH: EVQLVESGGGLVKPGGSLKLSCAASGFTFSRYGMSWVRQTPEKRLEWVAGINGGGSYTYYLDTVKGRFTISRDNSRNTLYLQMSSLRSEDTAMYYCVSQGSNYYFDYWGQGTTLTVSS VL: DIRMTQSPSSMSVSLGDTVSITCHASQGISSNIGWLQQKPGKSFKALIYHGTNLEDGVPSRFSGSGSGADYSLTISSLESEDFADYYCVQYAQFPYTFGGGTKLEIK",0.081,–,–,–,–
"chimeric antibody 2F4 (antibody, human IgG1, V domains shown, also called ch-2F4) VH: EVQLVESGGGLVKPGGSLKLSCAASGLTFSRYAMSWVRQTPEKRLEWVAGISSGGSYTYYSDTVKGRFTISRDNVRNTLYLQMSSLRSEDTAMYYCGREYGRDYWGQGTSVTVSS VL: DILMTQSPSSMSVSLGDTVSITCHASQGINSNIGWLQQKPGKSFKGLIYHGTNLEDGVPSRFSGSGSGTDYSLTISSLESEDFADYYCVQYAQFPRTFGGGTTLEIK",0.056,–,2.5,0.00259,1.04e+06
"murine mAb 1E4 (antibody, V domains shown, Murine antibody from hybridoma) VH: EVQLVESGGGLVKPGGSLKLSCAASGFTFSRYAMSWVRQTPEKRLEWVAGISSGGSYTYYPDTLKGRFTVSRDNARNTLYLQMSSLRSEDTAKYFCASQGSNHYFDYWGQGTTLTVSS VL: DTLMTQSPSSMSVSLGDTVSITCHASQGIHNNIGWLQQKPGKSFKALIYHGTNLEDGVPSRFSGSGSGADYSLIISSLESEDFADYYCVQYAQFPYTFGGGTKLEIK",–,0.000293,–,–,–
"chimeric antibody M1 (antibody, V domains shown, also called ch-M1) VH: EIQLQQSGPELVMPGASVKVSCTASGYPFTTYNMYWVKQSHGKSLEWIAYIDPYNGGTSYNQKFKGKATLTVDKSSSTAYMHLNSLTSEDSAVYYCARSGFYDGYYAWYFDVWGAGTTVTVSS VL: DVVMTQTPLSLPVSLGDQASISCRSSQSLVHSGGNTYLHWYLQKPGQSPKLLIYKVSNRFSGVPDRFSGSGSGTDFTLKISRVEAEDLGVYFCSQSTHVPLTFGAGTKLELK",0.063,–,0.14,9.41e-05,674000
"M1 (listed as murine antibody) (antibody, V domains shown) VH: EIQLQQSGPELVMPGASVKVSCTASGYPFTTYNMYWVKQSHGKSLEWIAYIDPYNGGTSYNQKFKGKATLTVDKSSSTAYMHLNSLTSEDSAVYYCARSGFYDGYYAWYFDVWGAGTTVTVSS VL: DVVMTQTPLSLPVSLGDQASISCRSSQSLVHSGGNTYLHWYLQKPGQSPKLLIYKVSNRFSGVPDRFSGSGSGTDFTLKISRVEAEDLGVYFCSQSTHVPLTFGAGTKLELK",–,3.98e-05,–,–,–
"chimeric antibody 2F7 (antibody, human IgG1, V domains shown, also called ch-2F7) VH: EVQLVESGGGLVQPGGSLKLSCAASGFTFSNYYMSWVRQTPEKRLEWVAYVSSGGGSTYYSDSVKGRFTISRDNAKNTLYLQMSSLKPEDTAMYYCTRESYSQGNYFDYWGQGTTLTVSS VL: DIVMTQSPATLSVTPGDRVSLSCRASQSISDYLHWYQQKSHESPRLLIKFASQSISGIPSRFSGSGSGSDFTLSINSVEPEDVGVYYCQNGHSFSLTFGAGTKLELK",0.17,–,68.8,0.00304,44200
"chimeric antibody 2F8 (antibody, human IgG1, V domains shown, also called ch-2F8) VH: QVQLQQPGSVLVRPGASVKLSCKASGYTFTNSWMNWAKLRPGQGLEWIGGIYPNSGNIEYNEKFKGKATLTVDTSSSTAYMDLTSLTSEDSAVYYCARDSRFSYWGQGTLVTVSA VL: DIVMTQSHKFMSTSVGDRVSITCKASQDVRTAVAWYQQKPGQSPKLLISSTSYRYTGVPDRFTGSGSGTDFTFIISSVQAEDLAVYYCQQHYSTPLTFGAGTKLELK",0.067,–,0.119,0.000114,1.13e+06
"chimeric antibody 1C9 (antibody, human IgG1, V domains shown) VH: QVQLQQPGSVLVRPGASVKLSCKASGDTFTTYWMNWVKQRPGQGLEWIGGIYLNSGSSEYNEKFKGKATLSVDTSSSTAYMDLSSLTSEDSAVYYCARDSRFSYWGQGTLVTVSA VL: DIVMTQSHKFLSTSVGDRVSITCKASQDVSTAVAWYQQKPGQSPELLISSASYRYTGVPDRFTGSGSGTDFTFTISSVQAEDLAVYYCQQHYNTPLTFGAGTQLELK",0.068,–,–,–,–

# Continued, values first:
EC50 [1] [nM],koff [2] [s⁻¹],Kd [3] [nM],koff [3] [s⁻¹],kon [3] [M⁻¹ s⁻¹],Binder
–,8.91e-05,–,–,–,"murine mAb 2G6 (antibody, V domains shown, Murine antibody from hybridoma) VH: EVQLVESGGGLVKPGGSLKLSCAASGFTFSRYGMSWVRQTPEKRLEWVAGINGGGSYTYYLDTVKGRFTISRDNSRNTLYLQMSSLRSEDTAMYYCVSQGSNYYFDYWGQGTTLTVSS VL: DIRMTQSPSSMSVSLGDTVSITCHASQGISSNIGWLQQKPGKSFKALIYHGTNLEDGVPSRFSGSGSGADYSLTISSLESEDFADYYCVQYAQFPYTFGGGTKLEIK"
–,0.00166,–,–,–,"murine mAb 2F4 (antibody, V domains shown, Murine antibody from hybridoma) VH: EVQLVESGGGLVKPGGSLKLSCAASGLTFSRYAMSWVRQTPEKRLEWVAGISSGGSYTYYSDTVKGRFTISRDNVRNTLYLQMSSLRSEDTAMYYCGREYGRDYWGQGTSVTVSS VL: DILMTQSPSSMSVSLGDTVSITCHASQGINSNIGWLQQKPGKSFKGLIYHGTNLEDGVPSRFSGSGSGTDYSLTISSLESEDFADYYCVQYAQFPRTFGGGTTLEIK"
–,0.000331,–,–,–,"murine mAb 2A10 (antibody, V domains shown, Murine antibody from hybridoma) VH: EVQLVESGGGFVKPGGSLKLSCAASGFTFSTFGMSWVRQTPDKRLEWVAGISPGGSYTYYPDTVKGRFTISRDNARNTLYLQMSSLRSEDSAMYYCTRGRSVWGTGTTVTVSS VL: DILMTQSPSSMSVSLGDTVSITCHASQDISSNIGWLQQKPGKSFKGLIYHGTTLEDGIPSRFSGSGSGADYSLTISSLESEDFADYYCVQSAQFPWTFGGGTKLEIK"
–,0.00253,–,–,–,"murine mAb 2F7 (antibody, V domains shown, Murine antibody from hybridoma) VH: EVQLVESGGGLVQPGGSLKLSCAASGFTFSNYYMSWVRQTPEKRLEWVAYVSSGGGSTYYSDSVKGRFTISRDNAKNTLYLQMSSLKPEDTAMYYCTRESYSQGNYFDYWGQGTTLTVSS VL: DIVMTQSPATLSVTPGDRVSLSCRASQSISDYLHWYQQKSHESPRLLIKFASQSISGIPSRFSGSGSGSDFTLSINSVEPEDVGVYYCQNGHSFSLTFGAGTKLELK"
–,5.97e-05,–,–,–,"murine mAb 2E4 (antibody, V domains shown, Murine antibody from hybridoma) VH: QVQLQQPGSVLVRPGTSVKLSCKASGYTFTSSWMNWVKQRPGQGLEWIGGIYPNRGTTEYNEKFKGKATLTVDTSSSTAFMDLNRLTSEDSAVYYCARDSRFADWGQGTLVTVSA VL: DIMLTQSHKFMSTSVGDRVSITCKASQDVSAAVAWYQQKPGQSPKLLISSASYRYTGVPDRFTGSGSGTDFTFTISSVQAEDLAVYYCQQHYNTPLTFGAGTKLELK"
–,6.87e-05,–,–,–,"murine mAb 2F8 (antibody, V domains shown, Murine antibody from hybridoma) VH: QVQLQQPGSVLVRPGASVKLSCKASGYTFTNSWMNWAKLRPGQGLEWIGGIYPNSGNIEYNEKFKGKATLTVDTSSSTAYMDLTSLTSEDSAVYYCARDSRFSYWGQGTLVTVSA VL: DIVMTQSHKFMSTSVGDRVSITCKASQDVRTAVAWYQQKPGQSPKLLISSTSYRYTGVPDRFTGSGSGTDFTFIISSVQAEDLAVYYCQQHYSTPLTFGAGTKLELK"
